Assay results from patent US20170152290A1.

Biological target: sLRP1-CIV (cluster IV of LRP1 fused to the constant region of a human IgG1) (human)
Assay: SPR (Biacore X), sLRP1-CIV immobilised on CM5 chip, peptide at 20 µM; RU observed at 160 s

Row | Binder | RU (at 160 s) [RU]
1 | CSNIVIGIGDKALKINACKKK (modifications not checked) [peptide HDIII3CLW-] | 192
2 | SSNIVIGIGDKALKINWSKKK (modifications not checked) [peptide HDIII3CLC-] | 38.2
